Test results published in PMC9706017, “Crystal Structure and Molecular Mechanism of Phosphotransbutyrylase from Clostridium acetobutylicum” (Journal of Microbiology and Biotechnology, 2021).

Target: the molecule itself
Experiment: crystal structure; apo CaPTB with sulfate ions; crystals from 20% PEG3350, 0.2 M lithium sulfate, 0.1 M HEPES pH 7.5, 20°C; space group P21; 2.9 Å; eight molecules in the asymmetric unit

B1: phosphotransbutyrylase from Clostridium acetobutylicum (enzyme, UniProt P58255 1-301, looked up)
chain: MIKSFNEIIMKVKSKEMKKVAVAVAQDEPVLEAVRDAKKNGIADAILVGDHDEIVSIALKIGMDVNDFEIVNEPNVKKAALKAVELVSTGKADMVMKGLVNTATFLRSVLNKEVGLRTGKTMSHVAVFETEKFDRLLFLTDVAFNTYPELKEKIDIVNNSVKVAHAIGIENPKVAPICAVEVINPKMPSTLDAAMLSKMSDRGQIKGCVVDGPLALDIALSEEAAHHKGVTGEVAGKADIFLMPNIETGNVMYKTLTYTTDSKNGGILVGTSAPVVLTSRADSHETKMNSIALAALVAGNK
notes: phosphotransbutyrylase (phosphate butyryltransferase, PTB) of Clostridium acetobutylicum; Octamer (four dimers) in the crystal and by size-exclusion chromatography; Removal of the tag is not mentioned; also called CaPTB; PTB; source: E. coli BL21(DE3)-T1R, purified (Ni-NTA agarose, Superdex200 size exclusion)
In the case of B1, the “stoichiometry N” value is reported as 8.
